A word on the Kd: it is a measure of binding affinity in units of concentration. Low values mean higher affinity, high ones lower affinity.

Assay [1] deals with T1, MICA*004 on HCC1534 cells (human, UniProt Q29983 24-383). The assay is described as follows: cell-based or functional assay.
The target in assay [2] is T2, MILL1-MICA chimera.murine IgG2a Fc fusion (mouse MILL1 with grafted human MICA*008 …).
T2 construct: MICA*008 residues around NGTYQT on the 'back' and in the beta2 microglobulin interface grafted onto murine MILL1; also called MILL1-MICA*008 chimera
The assay is described as follows: ELISA, coated chimera. (In general: In an ELISA, binding on a coated surface is turned into a signal by an enzyme label.)

In assay [3] the target is T3, MICA.008.a3.T204-S297.E215N.G243N.H248N.R279N.C-terminal insert of N298.G299.S300.mIgG2a.Glyco4 … (human; mouse, engineered N-linked glycosylation sites E215N, G243N, H248N, R279N and inserted N298).
T3 construct: not shown: murine IgG2a Fc
The experiment in a line: ELISA, coated variant.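 Also: ELISA with plates coated at 2 ug/ml with MICA*008 alpha 3 glycosylation variants as murine IgG2a Fc fusions, antibody binding detected by HRP anti-human IgG Fc and TMB absorbance.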

Assay [4] deals with T4, MICA.008.a3.R202-S297.R202N mIgG2a.Glyco11 (human; mouse, UniProt Q29983 203-297, engineered N-linked glycosylation site R202N).
T4 construct: not shown: murine IgG2a Fc
T4 chain: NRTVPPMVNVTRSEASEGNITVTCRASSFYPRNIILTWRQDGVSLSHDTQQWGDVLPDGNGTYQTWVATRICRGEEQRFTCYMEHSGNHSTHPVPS
The experiment in a line: ELISA, coated variant.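 Also: ELISA with plates coated at 2 ug/ml with MICA*008 alpha 3 glycosylation variants as murine IgG2a Fc fusions, antibody binding detected by HRP anti-human IgG Fc and TMB absorbance.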

Assay [5] deals with T5, MICA.008.a3.T204-S297.E215N.mIgG2a.Glyco12 (human; mouse, UniProt Q29983 204-297, engineered N-linked glycosylation site E215N).
T5 construct: not shown: murine IgG2a Fc
T5 chain: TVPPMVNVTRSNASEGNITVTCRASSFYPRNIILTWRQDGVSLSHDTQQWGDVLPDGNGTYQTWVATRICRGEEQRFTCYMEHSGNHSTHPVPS
The experiment in a line: ELISA, coated variant.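 Also: ELISA with plates coated at 2 ug/ml with MICA*008 alpha 3 glycosylation variants as murine IgG2a Fc fusions, antibody binding detected by HRP anti-human IgG Fc and TMB absorbance.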

Assay [6] concerns the target T6, MICA008.His (human MICA*008 alpha 3 domain, His tagged) (human).
T6 construct: Also used for FPOP (expressed in CHO); also called huMICA*008 alpha 3-his; MICA*008 a3
T6 chain: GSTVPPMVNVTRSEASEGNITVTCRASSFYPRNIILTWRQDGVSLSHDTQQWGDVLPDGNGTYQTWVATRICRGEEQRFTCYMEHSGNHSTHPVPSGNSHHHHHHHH
The experiment in a line: SPR, antibody captured. (SPR reads the build-up and loss of mass on a sensor chip optically.)

The target in assay [7] is T7, MICA002.His (human MICA*002 alpha 3 domain, His tagged) (human).
T7 construct: also called huMICA*002 alpha 3-his
T7 chain: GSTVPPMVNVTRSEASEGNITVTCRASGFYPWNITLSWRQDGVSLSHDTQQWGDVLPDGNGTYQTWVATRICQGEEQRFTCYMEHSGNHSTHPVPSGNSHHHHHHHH
The experiment in a line: SPR, antibody captured.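 Also: SPR with antibody held by surface-bound anti-Fc while His-tagged alpha three domains flow over, Kd derived by fitting a one-to-one binding model to sensograms.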

The target of assay [8] is T8, MICA004.His (human MICA*004 alpha 3 domain, His tagged) (human).
T8 construct: also called huMICA*004 alpha 3-his
T8 chain: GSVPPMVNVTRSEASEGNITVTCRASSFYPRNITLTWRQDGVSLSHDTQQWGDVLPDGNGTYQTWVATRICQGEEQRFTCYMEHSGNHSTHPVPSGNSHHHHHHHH
The assay is described as follows: SPR, antibody captured.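 Also: SPR with antibody held by surface-bound anti-Fc while His-tagged alpha three domains flow over, Kd derived by fitting a one-to-one binding model to sensograms.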

In assay [9] the target is T9, MICB005.His (human MICB*005 alpha 3 domain, His tagged) (human).
T9 construct: also called huMICB*005 alpha 3-his
T9 chain: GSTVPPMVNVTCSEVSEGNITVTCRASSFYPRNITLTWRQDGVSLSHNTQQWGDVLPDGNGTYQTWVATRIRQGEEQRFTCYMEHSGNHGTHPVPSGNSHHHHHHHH
The assay is described as follows: SPR, antibody captured.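 Also: SPR with antibody held by surface-bound anti-Fc while His-tagged alpha three domains flow over, Kd derived by fitting a one-to-one binding model to sensograms.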

Assay [10] deals with T1, MICA*004 on HCC1534 cells. The experiment in a line: cell-based or functional assay. The source holds these as a separate data set.
The target in assay [11] is T10, MICB*005 on HCC1534 cells (human, UniProt Q29980 23-383).
T10 sequence (looked up): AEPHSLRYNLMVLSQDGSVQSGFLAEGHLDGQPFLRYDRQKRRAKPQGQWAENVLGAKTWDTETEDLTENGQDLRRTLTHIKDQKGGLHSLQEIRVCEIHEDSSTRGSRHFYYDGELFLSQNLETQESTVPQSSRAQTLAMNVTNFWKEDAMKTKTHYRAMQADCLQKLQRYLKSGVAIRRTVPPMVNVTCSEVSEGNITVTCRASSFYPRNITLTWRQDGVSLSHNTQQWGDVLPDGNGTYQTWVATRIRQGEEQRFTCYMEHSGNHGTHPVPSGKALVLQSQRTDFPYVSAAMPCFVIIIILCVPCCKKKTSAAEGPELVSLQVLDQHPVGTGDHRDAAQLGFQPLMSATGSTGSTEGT
The assay is described as follows: cell-based or functional assay.

In assay [12] the target is T10, MICB*005 on HCC1534 cells. The experiment in a line: cell-based or functional assay. The source holds these as a separate data set.
Assay [13] deals with T11, MICA.008.a3.T204-S297.I236T.mIgG2a.Glyco13 (human; mouse, UniProt Q29983 204-297, engineered N-linked glycosylation site created by I236T).
T11 construct: not shown: murine IgG2a Fc
T11 chain: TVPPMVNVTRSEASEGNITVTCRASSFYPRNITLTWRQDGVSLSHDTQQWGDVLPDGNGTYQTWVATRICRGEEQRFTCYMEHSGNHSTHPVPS
The experiment in a line: ELISA, coated variant.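 Also: ELISA with plates coated at 2 ug/ml with MICA*008 alpha 3 glycosylation variants as murine IgG2a Fc fusions, antibody binding detected by HRP anti-human IgG Fc and TMB absorbance.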

The target in assay [14] is T12, MICA.008.a3.T204-S297.G243N.mIgG2a.Glyco14 (human; mouse, UniProt Q29983 204-297, engineered N-linked glycosylation site G243N).
T12 construct: not shown: murine IgG2a Fc
T12 chain: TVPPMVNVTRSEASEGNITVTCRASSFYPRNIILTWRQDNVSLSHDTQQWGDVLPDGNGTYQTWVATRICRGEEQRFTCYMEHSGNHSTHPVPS
The experiment in a line: ELISA, coated variant.

The target in assay [15] is T13, MICA.008.a3.T204-S297.H248N.mIgG2a.Glyco15 (human; mouse, UniProt Q29983 204-297, engineered N-linked glycosylation site H248N).
T13 construct: not shown: murine IgG2a Fc
T13 chain: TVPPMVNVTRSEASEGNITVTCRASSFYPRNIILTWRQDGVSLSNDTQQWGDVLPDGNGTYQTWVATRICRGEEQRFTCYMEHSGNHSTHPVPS
The experiment in a line: ELISA, coated variant.

The target of assay [16] is T14, MICA.008.a3.T204-S297.R279N.mIgG2a.Glyco16 (human; mouse, UniProt Q29983 204-297, engineered N-linked glycosylation site R279N).
T14 construct: not shown: murine IgG2a Fc
T14 chain: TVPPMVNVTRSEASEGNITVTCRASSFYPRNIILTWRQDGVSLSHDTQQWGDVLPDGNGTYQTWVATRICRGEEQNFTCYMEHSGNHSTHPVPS
The experiment in a line: ELISA, coated variant.

Assay [17] has as its target T15, MICA.008.a3.T204-S297.C-terminal insert of N298.G299.S300.mIgG2a.Glyco17 (human; mouse, UniProt Q29983 204-297, engineered N-linked glycosylation site at inserted N298).
T15 construct: not shown: murine IgG2a Fc
T15 chain: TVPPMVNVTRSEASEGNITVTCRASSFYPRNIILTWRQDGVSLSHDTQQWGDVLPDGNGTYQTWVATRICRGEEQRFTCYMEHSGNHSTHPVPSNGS
The experiment in a line: ELISA, coated variant.

For assay [18], the target named is T16, MICA*008 on MEL-JUSO cells (human, UniProt Q29983 24-317).
T16 chain: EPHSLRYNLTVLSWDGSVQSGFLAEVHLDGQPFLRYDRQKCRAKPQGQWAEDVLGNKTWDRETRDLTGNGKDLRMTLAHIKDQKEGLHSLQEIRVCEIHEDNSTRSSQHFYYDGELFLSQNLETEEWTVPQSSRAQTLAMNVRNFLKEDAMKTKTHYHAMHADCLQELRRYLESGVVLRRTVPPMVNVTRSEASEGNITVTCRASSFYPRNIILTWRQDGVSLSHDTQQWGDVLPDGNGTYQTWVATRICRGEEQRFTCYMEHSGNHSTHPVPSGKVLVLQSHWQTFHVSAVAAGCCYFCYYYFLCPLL
The assay is described as follows: cell-based or functional assay.

The target of assay [19] is T10, MICB*005 on HCC1534 cells. The assay is described as follows: cell-based or functional assay. This is another data set of the same source.
The target in assay [20] is T16, MICA*008 on MEL-JUSO cells. The assay is described as follows: cell-based or functional assay.
Assay [21] deals with T1, MICA*004 on HCC1534 cells. The assay is described as follows: cell-based or functional assay. The source holds these as a separate data set.
The target of assay [22] is MICA*002 on cells (PANC-1; B16-MICA002) (human, UniProt Q29983 24-383). The experiment in a line: cell-based or functional assay.
Assay [23] has as its target T6, MICA008.His (human MICA*008 alpha 3 …). The assay is described as follows: SPR (Biacore), MICA*008 alpha-3 domain.

Several values for one entry are separate records, joined by “and”; a condition that tells them apart may be missing. Identical values can stand only once. Like-named read-outs stand apart in the source and are kept apart here.

B1: 6E1.1.12 (antibody, V domains shown)
VH: QGQMQQSGAELVKPGASVKLSCKTSGFTFSDNYISWLKQKPGQSLEWIAWIYAGTGGSSYNQKFRDKAQLTVDTSSRTAYMQLSSLTTEDSAIYYCARHDYYGTSGAWFAYWGRGTLVTVSA
VL: DVLMTQTPLSLPVSLGDQASISCRSSQHIVHSNENTYLEWYLQKPGQSPKLLIYKVSNRFSGVPDRFSGSGSGTDFTLKISRVEAEDLGVYYCFQGSHVPWTFGGGTKVEIK
notes: Mouse hybridoma antibody; constant regions differ by assay
For the molecule B1, in assay [1], the “maximum inhibition of shedding” value is approximately 50%. Moreover, the binding result in assay [2], in assay [3], in assay [4] and in assay [5] was “binds” in each case. The Kd amounted to 6.8 nM in assay [6], 2.8 nM in assay [7], 8.7 nM in assay [8] and 10 nM in assay [9]. Besides, the “EC50 of shedding inhibition” value in assay [10] was 0.265 µg/mL and 0.157 µg/mL; in assay [11] it was 0.0791 µg/mL; in [12], 0.0724 µg/mL. In addition, in [12], the “Max % Inhibition of shedding” value amounted to 58%.

B2: 2E5.2.3 (antibody, V domains shown)
VH: QGQMQQSGAELVKPGASVKLSCKTSGFTFSDNYISWLKQKPGQSLEWIAWIYAGTGGTSYNQKFTAKAQLTVDTSSSTAYMQFSSLTTEDSAIYYCARHDYYGTSGAWFAYWGQGTLVTVSA
VL: DVLMTQTPLSLPVSLGDQASLSCRSSQNIVHINGNTYLEWYLQKPGQSPKLLIYKVSNRFSGVPDRFSGSGSGTDFTLKISRVEAEDLGVYYCFQGSHVPWTFGGGTKVEIK
notes: as for B1
Consider B2, for which the binding result in [2], in assay [3], in [4], in [5], in [13] and in [14] was “binds” each time. For the same molecule, the binding result in assay [15], in [16] and in assay [17] was “binds” each time. For the same molecule, the Kd in assay [6] is 1.8 nM; in [7], 0.66 nM; in [8], 1.96 nM; in [9] it was 2.7 nM. Further, the “EC50 of shedding inhibition” value in assay [18] is 0.195 µg/mL and 0.112 µg/mL; in assay [10], 0.107 µg/mL and 0.23 µg/mL; in assay [11] it was 0.107 µg/mL. Further, the “% max inhibition of shedding” value in assay [11] came out at 60%.

B3: 1D5 (antibody, V domains shown)
VH: EIQLQQSGPELVKPGASVKVSCKASGYAFTSQNIYWVKQSHGKSLEWIGYIEPYNVVPMYNPKFKGKATLTVDKSSSSAYIHLNSLTSEDSAIYYCARSGSSNFDYWGQGTTLTVSS
VL: EIILTQSPTTMAASPGEKITITCSASSSISSHYLHWYQQKSGFSPKLLIYRTSNLASGVPARFSGSGSGTSYSLTIGTMEAEDVATYYCQQGSSLPLTFGAGTKVEIK
notes: Mouse variable domains; constant regions differ by assay (human IgG1 or mouse IgG2a); also called anti-MIC 1D5
As to B3, the “maximum inhibition of shedding” value is approximately 60% in assay [1] and approximately 50% in assay [19]. In addition, the binding result in assay [4], in assay [5], in [13], in assay [15] and in [17] was “binds” throughout. Besides, the Kd in [6] is 0.42 nM; in assay [7], 0.67 nM; in [8], 0.49 nM; in assay [9] it was 1.09 nM; in assay [23], 0.5 nM. For the same molecule, the “% max inhibition of shedding” value in [18] turned out to be 77%; in [10] it was 81%; in [11], 54%. The “EC50 of shedding inhibition” value in [18] was 0.0087 µg/mL; in assay [10], 0.0435 µg/mL; in assay [11] it was 0.0128 µg/mL; in assay [20], 0.0207 µg/mL; in [21] it was 0.0136 µg/mL; in assay [12] it was 0.0386 µg/mL. For the same molecule, the “EC50 of shedding inhibition” value in assay [22] was 0.0342 µg/mL. Besides, the “Max % Inhibition of shedding” value in assay [20] stood at 74%; in [21] it was 65%; in assay [12], 59%; in assay [22], 48%.

Source of the values: patent publication US20200055939A1 (Genentech, published 2020).
